Measurements reported in publication PMC12578637, “Structure of a distinct β-barrel assembly machinery complex in the Bacteroidota” (Nature Microbiology, 2025).

T1: BtBamI (Bt3727) (B. thetaiotaomicron (endogenous in B. …, UniProt Q8A1D9 22-493, lipid anchor cysteine)); O-glycosylation at 10 sites (Ser67 among them))
T1 sequence (looked up): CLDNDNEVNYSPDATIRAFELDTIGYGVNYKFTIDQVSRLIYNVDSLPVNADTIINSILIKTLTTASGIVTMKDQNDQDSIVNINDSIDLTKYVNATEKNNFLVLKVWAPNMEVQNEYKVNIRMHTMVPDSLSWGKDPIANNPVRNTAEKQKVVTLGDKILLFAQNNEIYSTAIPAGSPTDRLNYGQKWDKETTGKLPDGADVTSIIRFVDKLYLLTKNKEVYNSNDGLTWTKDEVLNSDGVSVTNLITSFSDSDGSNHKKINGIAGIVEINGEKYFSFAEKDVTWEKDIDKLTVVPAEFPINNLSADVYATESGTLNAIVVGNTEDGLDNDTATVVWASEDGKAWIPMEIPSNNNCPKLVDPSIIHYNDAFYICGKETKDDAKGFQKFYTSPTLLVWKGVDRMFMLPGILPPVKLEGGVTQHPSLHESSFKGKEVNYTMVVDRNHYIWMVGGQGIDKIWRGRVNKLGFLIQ

T2: BtBamA (Bt3725), B. thetaiotaomicron BamA with N-terminal His7 tag (B. thetaiotaomicron, UniProt Q8A1E1 20-885)
T2 sequence (looked up): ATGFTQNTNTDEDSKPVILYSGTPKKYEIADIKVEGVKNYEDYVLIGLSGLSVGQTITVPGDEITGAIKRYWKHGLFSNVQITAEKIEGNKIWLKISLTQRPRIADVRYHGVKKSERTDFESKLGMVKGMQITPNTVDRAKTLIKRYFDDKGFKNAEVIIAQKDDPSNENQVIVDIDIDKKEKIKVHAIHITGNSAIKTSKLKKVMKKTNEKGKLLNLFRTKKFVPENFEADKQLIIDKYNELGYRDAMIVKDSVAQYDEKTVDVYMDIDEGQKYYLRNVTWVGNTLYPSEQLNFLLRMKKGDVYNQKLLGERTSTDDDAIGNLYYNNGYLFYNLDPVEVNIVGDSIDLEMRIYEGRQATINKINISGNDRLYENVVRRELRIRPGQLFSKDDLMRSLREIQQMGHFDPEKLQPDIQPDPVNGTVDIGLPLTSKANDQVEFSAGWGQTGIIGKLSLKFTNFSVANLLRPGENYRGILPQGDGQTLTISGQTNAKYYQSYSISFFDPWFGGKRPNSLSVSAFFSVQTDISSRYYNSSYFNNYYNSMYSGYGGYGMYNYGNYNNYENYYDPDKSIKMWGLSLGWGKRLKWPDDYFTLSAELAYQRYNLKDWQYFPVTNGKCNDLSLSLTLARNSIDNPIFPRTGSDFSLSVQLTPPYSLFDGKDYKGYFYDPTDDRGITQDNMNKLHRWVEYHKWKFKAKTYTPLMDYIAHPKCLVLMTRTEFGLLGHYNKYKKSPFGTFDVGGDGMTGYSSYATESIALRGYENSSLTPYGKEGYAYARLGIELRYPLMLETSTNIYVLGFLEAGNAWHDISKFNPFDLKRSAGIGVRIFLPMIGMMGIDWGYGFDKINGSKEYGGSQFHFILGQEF

B1: BtBamH (Bt4306) (natural protein, UniProt Q89ZS0 18-542, looked up)
chain: CDDNTGGLGLGMFPGNDQNIKGKLSTFDVTTESVKTGDIYAKTNIGYIGKFTDETFGTYQAGFLAQLNCPDGLTFPEPYKEVTDASGNVISATGRMVVDDKDPENKDVTFIKDGNQIIGNIRAVELYLWYDSYFGDSLTACRLSVYELGGNGKETLNLDNAYYTDINPEDFYDSQNILGTKAYTAVDLSVKDSIRNLSTYVPSVHIAFKEDIATRVGGNILTAARKAKNADKEFNSQLFREAFQGIYVKSDYGDGTVLYIDQPQMNVVYKCYATDSITGKKLQKKDGSGKDSTYYSYRVFATTREVIQANQLKNDPERIDALIKEDKNTYLKSPAGIFTEATLPISDIQNELTGDTLNAVKLTFTNYNQTGDKKFGMAIPSTVMLVRKKFQDSFFKDNKLSDGVSSYLTSHTSSTNQYVFSNITKLVNACIAEKEEAKKNAGSSWDETKWLQENPDWNKVVLIPVLVTYDSSNTTTGQANIIRIQHDLKPGYVRLKGGSLGKTNPDYKLKLEVISTDFGLTTKSN
modifications: tri-acylated lipid anchor on the N-terminal cysteine; O-glycosylation (Ser309 among the sites)

Key:
Assay in all cases: cryo-EM structure; BtBAM complex co-purified through BamAhis from native membranes, in DDM, 8 mg/ml; two 3D classes (3.28 Å and 3.46 Å); AF2 models docked and refined
Settings in all cases: both partners purified
BtBamI (Bt3727) = target: T1, BtBamI (Bt3727)
BtBamH (Bt4306) = target: B1
[1] = target: T2, BtBamA (Bt3725), B. thetaiotaomicron …

| Binder | binding result (BtBamI (Bt3727)) | binding result (BtBamH (Bt4306)) | binding result [1] |
| --- | --- | --- | --- |
| BtBamJ (Bt3612) (natural protein, UniProt Q8A1P7 20-196, looked up, lipid anchor cysteine; O-glycosylation sites) CSETEEVGKYDNWRARNEAFIDSLANVYATASGRGGLERIEMLTAPGNYIYYKEMEPMTDHVVKAGNPKYTDYVKVYYKGTNILGEYFDGNFKGDNPVVDGKDPSEGDSPTTIFQVSGVITGWGEVLQRMEVGDRWKVYIPWDYAYGSSGTTGILGYSALVFDITLLDFANTEAELK | binds | binds |  |
| B1 |  |  | binds |
